Measured values reported in article PMC12867984, “Functional assessment of protein variants in structured domains by fluorescence cross-correlation spectroscopy” (Scientific Reports, 2026).
One block for each binder: values may come before it.

Columns and labels:
[1] = target: T1, mCherry-BARD1 (UniProt Q99728 1-777); test: fluorescence cross-correlation spectroscopy (FCCS); lysate of co-transfected HeLa cells; 20 mM Tris-HCl pH 7.5, 140 mM KCl, 1.5 mM MgCl2, 1 mM DTT, 0.5% NP-40; lysed at room temperature; cross-correlation/autocorrelation ratio; details: partners not purified
T1 construct: also called BRCA1 Associated RING Domain 1; source: HeLa, transfected, in live cells and in lysate
T1 sequence (looked up): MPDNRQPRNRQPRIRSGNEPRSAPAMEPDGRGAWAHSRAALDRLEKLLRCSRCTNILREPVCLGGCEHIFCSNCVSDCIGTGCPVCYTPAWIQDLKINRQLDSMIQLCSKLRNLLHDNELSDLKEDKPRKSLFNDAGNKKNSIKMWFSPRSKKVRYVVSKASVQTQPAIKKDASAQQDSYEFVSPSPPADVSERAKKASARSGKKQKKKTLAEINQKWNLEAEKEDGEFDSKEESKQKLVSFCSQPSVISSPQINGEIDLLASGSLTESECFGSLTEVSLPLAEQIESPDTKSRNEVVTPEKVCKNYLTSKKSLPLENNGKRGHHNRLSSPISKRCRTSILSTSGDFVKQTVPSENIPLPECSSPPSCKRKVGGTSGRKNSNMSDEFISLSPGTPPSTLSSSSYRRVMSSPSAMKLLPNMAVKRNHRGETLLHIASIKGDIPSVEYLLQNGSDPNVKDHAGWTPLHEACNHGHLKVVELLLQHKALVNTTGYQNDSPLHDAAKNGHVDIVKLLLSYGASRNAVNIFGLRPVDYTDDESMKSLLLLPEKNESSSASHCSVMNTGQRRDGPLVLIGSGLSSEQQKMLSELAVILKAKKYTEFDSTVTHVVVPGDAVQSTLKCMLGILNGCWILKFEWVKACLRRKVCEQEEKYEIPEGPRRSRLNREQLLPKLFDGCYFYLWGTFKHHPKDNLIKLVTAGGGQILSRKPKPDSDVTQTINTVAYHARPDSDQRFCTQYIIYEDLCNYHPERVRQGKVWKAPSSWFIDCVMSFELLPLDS

[2] = target: T2, mCherry-JUND (UniProt P17535 1-347); test: as above; details: partners not purified
T2 construct: JUND; the construct is not described in the methods; also called JunD Proto-Oncogene; source: HeLa, transfected, in lysate
T2 sequence (looked up): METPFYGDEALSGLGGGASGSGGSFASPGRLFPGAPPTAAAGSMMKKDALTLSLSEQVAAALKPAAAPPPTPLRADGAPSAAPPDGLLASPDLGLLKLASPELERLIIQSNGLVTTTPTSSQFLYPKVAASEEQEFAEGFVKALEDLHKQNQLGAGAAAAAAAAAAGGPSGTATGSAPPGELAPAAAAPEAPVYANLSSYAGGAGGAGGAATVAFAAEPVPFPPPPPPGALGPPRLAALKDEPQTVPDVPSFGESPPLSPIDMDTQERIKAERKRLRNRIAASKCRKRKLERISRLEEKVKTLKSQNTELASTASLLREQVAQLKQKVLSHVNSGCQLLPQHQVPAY

B1: GFP-RING (isolated BRCA1 RING domain, wild-type) (domain or fragment, UniProt P38398 1-109, looked up)
chain: MDLSALRVEEVQNVINAMQKILECPICLELIKEPVSTKCDHIFCKFCMLKLLNQKKGPSQCPLCKNDITKRSLQESTRFSQLVEELLKIICAFQLDTGLEYANSYNFAK
notes: BRCA1 amino acids 1-109 cloned into pEGFP-C1; also called EGFP-tagged RING trimmed domain; wild-type RING; source: HeLa, transfected, in lysate
cross-correlation [1]: 25%

B2: GFP-RING D67Y (domain or fragment, UniProt P38398 1-109, looked up)
chain: MDLSALRVEEVQNVINAMQKILECPICLELIKEPVSTKCDHIFCKFCMLKLLNQKKGPSQCPLCKNYITKRSLQESTRFSQLVEELLKIICAFQLDTGLEYANSYNFAK
notes: BRCA1 amino acids 1-109 with the variant; also called D67Y variant (isolated RING domain); source: HeLa, transfected, in lysate
reduction in binding relative to wild type [1]: 22%

B5: GFP-Menin (natural protein, UniProt O00255 1-610, looked up)
chain: MGLKAAQKTLFPLRSIDDVVRLFAAELGREEPDLVLLSLVLGFVEHFLAVNRVIPTNVPELTFQPSPAPDPPGGLTYFPVADLSIIAALYARFTAQIRGAVDLSLYPREGGVSSRELVKKVSDVIWNSLSRSYFKDRAHIQSLFSFITGTKLDSSGVAFAVVGACQALGLRDVHLALSEDHAWVVFGPNGEQTAEVTWHGKGNEDRRGQTVNAGVAERSWLYLKGSYMRCDRKMEVAFMVCAINPSIDLHTDSLELLQLQQKLLWLLYDLGHLERYPMALGNLADLEELEPTPGRPDPLTLYHKGIASAKTYYRDEHIYPYMYLAGYHCRNRNVREALQAWADTATVIQDYNYCREDEEIYKEFFEVANDVIPNLLKEAASLLEAGEERPGEQSQGTQSQGSALQDPECFAHLLRFYDGICKWEEGSPTPVLHVGWATFLVQSLGRFEGQVRQKVRIVSREAEAAEAEEPWGEEAREGRRRGPRRESKPEEPPPPKKPALDKGLGTGQGAVSGPPRKPPGTVAGTARGPEGGSTAQVPAPTASPPPEGPVLTFQSEKMKGMKELLVATKINSSAIKLQLTAQSQVQMKKQKVSTPSDYTLSFLKRQRKGL
notes: Menin (MEN1); the construct and its isoform are not described in the methods; also called MEN1 factor Menin; source: HeLa, transfected, in lysate
cross-correlation [2]: 21%

Second part, the binder after the results:

reduction in binding relative to wild type [1]: 20%
B3: GFP-RING-T37K (domain or fragment, UniProt P38398 1-109, looked up)
chain: MDLSALRVEEVQNVINAMQKILECPICLELIKEPVSKKCDHIFCKFCMLKLLNQKKGPSQCPLCKNDITKRSLQESTRFSQLVEELLKIICAFQLDTGLEYANSYNFAK
notes: BRCA1 amino acids 1-109 with the variant; source: HeLa, transfected, in lysate

reduction in binding relative to wild type [1]: 30%
B4: GFP-RING-T37R (domain or fragment, UniProt P38398 1-109, looked up)
chain: MDLSALRVEEVQNVINAMQKILECPICLELIKEPVSRKCDHIFCKFCMLKLLNQKKGPSQCPLCKNDITKRSLQESTRFSQLVEELLKIICAFQLDTGLEYANSYNFAK
notes: BRCA1 amino acids 1-109 with the variant; also called p.Thr37Arg; source: HeLa, transfected, in lysate

binding relative to wild type [2]: ~50%
B6: GFP-Menin A237V (natural protein, UniProt O00255 1-610, looked up)
chain: MGLKAAQKTLFPLRSIDDVVRLFAAELGREEPDLVLLSLVLGFVEHFLAVNRVIPTNVPELTFQPSPAPDPPGGLTYFPVADLSIIAALYARFTAQIRGAVDLSLYPREGGVSSRELVKKVSDVIWNSLSRSYFKDRAHIQSLFSFITGTKLDSSGVAFAVVGACQALGLRDVHLALSEDHAWVVFGPNGEQTAEVTWHGKGNEDRRGQTVNAGVAERSWLYLKGSYMRCDRKMEVVFMVCAINPSIDLHTDSLELLQLQQKLLWLLYDLGHLERYPMALGNLADLEELEPTPGRPDPLTLYHKGIASAKTYYRDEHIYPYMYLAGYHCRNRNVREALQAWADTATVIQDYNYCREDEEIYKEFFEVANDVIPNLLKEAASLLEAGEERPGEQSQGTQSQGSALQDPECFAHLLRFYDGICKWEEGSPTPVLHVGWATFLVQSLGRFEGQVRQKVRIVSREAEAAEAEEPWGEEAREGRRRGPRRESKPEEPPPPKKPALDKGLGTGQGAVSGPPRKPPGTVAGTARGPEGGSTAQVPAPTASPPPEGPVLTFQSEKMKGMKELLVATKINSSAIKLQLTAQSQVQMKKQKVSTPSDYTLSFLKRQRKGL
notes: Menin (MEN1) with the variant; construct and isoform not described; source: HeLa, transfected, in lysate

binding relative to wild type [2]: ~50%
B7: GFP-Menin A242V (natural protein, UniProt O00255 1-610, looked up)
chain: MGLKAAQKTLFPLRSIDDVVRLFAAELGREEPDLVLLSLVLGFVEHFLAVNRVIPTNVPELTFQPSPAPDPPGGLTYFPVADLSIIAALYARFTAQIRGAVDLSLYPREGGVSSRELVKKVSDVIWNSLSRSYFKDRAHIQSLFSFITGTKLDSSGVAFAVVGACQALGLRDVHLALSEDHAWVVFGPNGEQTAEVTWHGKGNEDRRGQTVNAGVAERSWLYLKGSYMRCDRKMEVAFMVCVINPSIDLHTDSLELLQLQQKLLWLLYDLGHLERYPMALGNLADLEELEPTPGRPDPLTLYHKGIASAKTYYRDEHIYPYMYLAGYHCRNRNVREALQAWADTATVIQDYNYCREDEEIYKEFFEVANDVIPNLLKEAASLLEAGEERPGEQSQGTQSQGSALQDPECFAHLLRFYDGICKWEEGSPTPVLHVGWATFLVQSLGRFEGQVRQKVRIVSREAEAAEAEEPWGEEAREGRRRGPRRESKPEEPPPPKKPALDKGLGTGQGAVSGPPRKPPGTVAGTARGPEGGSTAQVPAPTASPPPEGPVLTFQSEKMKGMKELLVATKINSSAIKLQLTAQSQVQMKKQKVSTPSDYTLSFLKRQRKGL
notes: as for B6
